Experimental findings from patent US20120322150A1 (CARNEGIE INSTITUTION OF WASHINGTON, published 2012) are described below.

The target of experiment [1] is T1, MBP-BSU1 (Arabidopsis, UniProt Q9LR78 1-793).
T1 construct: Recombinant fusion used as probe in overlay (far-western) blots and in phosphatase assays; also called BSU1 from E. coli
Description: in vitro overlay blot, MBP-BSU1 probe, anti-MBP detection. As to the method:
Total protein extracts obtained from Arabidopsis plants (F1) expressing BSU1 -YFP or co-expressing BSU1-YFP and BSK1-myc were immunoprecipitated with anti-myc, and the immunoblot was probed with anti-GFP and anti-myc antibody. […] GST-BSK1 or GST-BSK1 S230A was incubated with GST-BRI1-K or GST for 2 hrs. […] In the presence of BR (+BR), BR binding to the extracellular domain of BRI1 induces dissociation of BKI1 and association and inter-activation between BRI1 and BAKI. Activated BRI1 then phosphorylates BSK1, which in turn dissociates from the receptor complex and interacts with and presumably activate BSU1. BSU1 inactivates BIN2 by dephosphorylating its pTyr200, allowing accumulation of unphosphorylated BZR1/2, likely with help of a phosphatase that is yet to be identified. Unphosphorylated BZR1/2 accumulate in the nucleus and alter the expression of BR-target genes, leading to cellular and developmental responses. While individual representative protein is shown for each function, in Arabidopsis most of these components have about 2 to 5 homologous proteins (paralogs) that can contribute to the same or similar signaling function.
To test interaction of BSU1 with BIN2 or bin2-1 in vitro, a gel blot separating GST, GST-BIN2, GSTbin2-1 was incubated with 20 μg MBP-BSU1 in 5% non-fat dry milk/PBS buffer and washed four times. The blot was then probed with a polyclonal anti-MBP antibody. […]

In experiment [2] the target is T1, MBP-BSU1. Kind of experiment: overlay blot: GST fusions on membrane probed with MBP-BSU1 and anti-MBP antibody. How it is done: To test interaction of BSU1 with BIN2 or bin2-1 in vitro, a gel blot separating GST, GST-BIN2, GSTbin2-1 was incubated with 20 μg MBP-BSU1 in 5% non-fat dry milk/PBS buffer and washed four times. The blot was then probed with a polyclonal anti-MBP antibody. In the case of BSU1 overlay to BSK1, GST-BRI1-K, GST-BAK1-K and GST-BSK1 were separated by SDS-PAGE. To prepare phosphorylated BSK1, GST-BSK1 was incubated with GST-BRI1-K and 100 μM ATP in the kinase buffer for 2 hrs before SDS-PAGE. The blot was sequentially probed with MBP-BSU1 and a monoclonal anti-MBP antibody (New England Biolab, Beverly, Mass.).

T1 sequence (Q9LR78 whole entry, the tested form may be a part): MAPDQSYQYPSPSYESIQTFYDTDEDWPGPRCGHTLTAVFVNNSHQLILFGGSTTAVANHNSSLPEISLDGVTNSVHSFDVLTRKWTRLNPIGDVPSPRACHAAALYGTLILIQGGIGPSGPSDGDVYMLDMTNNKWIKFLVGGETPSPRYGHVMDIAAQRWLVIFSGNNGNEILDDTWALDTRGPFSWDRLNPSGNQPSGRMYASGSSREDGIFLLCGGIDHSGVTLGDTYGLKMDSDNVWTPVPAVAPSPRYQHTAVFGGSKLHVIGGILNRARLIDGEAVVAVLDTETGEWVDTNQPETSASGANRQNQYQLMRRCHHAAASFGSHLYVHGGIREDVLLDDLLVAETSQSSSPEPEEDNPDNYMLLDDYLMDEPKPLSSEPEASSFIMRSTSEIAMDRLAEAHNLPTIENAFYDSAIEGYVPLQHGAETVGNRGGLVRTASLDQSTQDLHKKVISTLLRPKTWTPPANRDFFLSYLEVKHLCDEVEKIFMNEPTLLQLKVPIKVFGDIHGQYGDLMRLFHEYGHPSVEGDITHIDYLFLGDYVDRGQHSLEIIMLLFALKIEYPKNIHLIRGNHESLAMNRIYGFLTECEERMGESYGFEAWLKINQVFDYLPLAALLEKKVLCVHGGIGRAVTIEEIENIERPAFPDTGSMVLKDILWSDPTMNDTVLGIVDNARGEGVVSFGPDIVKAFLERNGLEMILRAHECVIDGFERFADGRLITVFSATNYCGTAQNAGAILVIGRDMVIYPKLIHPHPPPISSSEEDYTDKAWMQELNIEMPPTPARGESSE

B1: GST-BRI1-K (receptor, Arabidopsis, UniProt O22476 815-1196, looked up)
chain: REMRKRRRKKEAELEMYAEGHGNSGDRTANNTNWKLTGVKEALSINLAAFEKPLRKLTFADLLQATNGFHNDSLIGSGGFGDVYKAILKDGSAVAIKKLIHVSGQGDREFMAEMETIGKIKHRNLVPLLGYCKVGDERLLVYEFMKYGSLEDVLHDPKKAGVKLNWSTRRKIAIGSARGLAFLHHNCSPHIIHRDMKSSNVLLDENLEARVSDFGMARLMSAMDTHLSVSTLAGTPGYVPPEYYQSFRCSTKGDVYSYGVVLLELLTGKRPTDSPDFGDNNLVGWVKQHAKLRISDVFDPELMKEDPALEIELLQHLKVAVACLDDRAWRRPTMVQVMAMFKEIQAGSGIDSQSTIRSIEDGGFSTIEMVDMSIKEVPEGKL
notes: domain: kinase domain; also called GST BR11-K; kinase domain of BRI1; not shown: GST (glutathione S-transferase) tag
For the molecule B1, in the experiment with MBP-BSU1 [1], the binding result is “no binding”.

B2: GST-BSK1 (enzyme, Arabidopsis, UniProt Q944A7 1-512, looked up)
chain: MGCCQSLFSGDNPLGKDGVQPQPLSQNNHGGATTADNGGSGGASGVGGGGGGGGIPSFSEFSFADLKAATNNFSSDNIVSESGEKAPNLVYKGRLQNRRWIAVKKFTKMAWPEPKQFAEEAWGVGKLRHNRLANLIGYCCDGDERLLVAEFMPNDTLAKHLFHWENQTIEWAMRLRVGYYIAEALDYCSTEGRPLYHDLNAYRVLFDEDGDPRLSCFGLMKNSRDGKSYSTNLAYTPPEYLRNGRVTPESVTYSFGTVLLDLLSGKHIPPSHALDMIRGKNIILLMDSHLEGKFSTEEATVVVELASQCLQYEPRERPNTKDLVATLAPLQTKSDVPSYVMLGIKKQEEAPSTPQRPLSPLGEACSRMDLTAIHQILVMTHYRDDEGTNELSFQEWTQQMKDMLDARKRGDQSFREKDFKTAIDCYSQFIDVGTMVSPTVFGRRSLCYLLCDQPDAALRDAMQAQCVYPDWPTAFYMQSVALAKLNMNTDAADMLNEAAQLEEKRQRGGRGS
notes: also called full-length BSK1; not shown: GST (glutathione S-transferase) tag
Turning to B2, the binding result with MBP-BSU1 [2] is “binds”.

B3: GST-BIN2 (enzyme, Arabidopsis, UniProt Q39011 1-380, looked up)
chain: MADDKEMPAAVVDGHDQVTGHIISTTIGGKNGEPKQTISYMAERVVGTGSFGIVFQAKCLETGETVAIKKVLQDRRYKNRELQLMRVMDHPNVVCLKHCFFSTTSKDELFLNLVMEYVPESLYRVLKHYSSANQRMPLVYVKLYMYQIFRGLAYIHNVAGVCHRDLKPQNLLVDPLTHQVKICDFGSAKQLVKGEANISYICSRFYRAPELIFGATEYTTSIDIWSAGCVLAELLLGQPLFPGENAVDQLVEIIKVLGTPTREEIRCMNPHYTDFRFPQIKAHPWHKIFHKRMPPEAIDFASRLLQYSPSLRCTALEACAHPFFDELREPNARLPNGRPFPPLFNFKQEVAGSSPELVNKLIPDHIKRQLGLSFLNQSGT
modifications: phospho-tyrosine 200 (autophosphorylation site of BIN2, detected on GST-BIN2 from E. coli)
notes: Expressed and purified from E. coli; also called wild type GST-BIN2; not shown: GST (glutathione S-transferase) tag
For B3, in the experiment with MBP-BSU1 [2], the binding result is on record as “binds”.

B4: GST-BAK1-K (receptor, Arabidopsis, UniProt Q94F62 247-615, looked up)
chain: AWWRRKKPQDHFFDVPAEEDPEVHLGQLKRFSLRELQVASDNFSNKNILGRGGFGKVYKGRLADGTLVAVKRLKEERTQGGELQFQTEVEMISMAVHRNLLRLRGFCMTPTERLLVYPYMANGSVASCLRERPESQPPLDWPKRQRIALGSARGLAYLHDHCDPKIIHRDVKAANILLDEEFEAVVGDFGLAKLMDYKDTHVTTAVRGTIGHIAPEYLSTGKSSEKTDVFGYGVMLLELITGQRAFDLARLANDDDVMLLDWVKGLLKEKKLEALVDVDLQGNYKDEEVEQLIQVALLCTQSSPMERPKMSEVVRMLEGDGLAERWEEWQKEEMFRQDFNYPTHHPAVSGWIIGDSTSQIENEYPSGPR
notes: domain: kinase domain; also called kinase domain of BAK1; not shown: GST (glutathione S-transferase) tag
As to B4, the binding result with MBP-BSU1 [1] was “no binding”.
